Measurements taken from publication PMC6152618, “Antimicrobial Activity of Truncated and Polyvalent Peptides Derived from the FKCRRWQWRMKKGLA Sequence against Escherichia coli ATCC 25922 and Staphylococcus aureus ATCC 25923” (Molecules : A Journal of Synthetic Chemistry and Natural …, 2017).

Assays:
[1] = system: Escherichia coli ATCC 25922; format: cell-based; details: n = 2
Method: (§1) The MIC was determined using a microdilution assay. In brief, bacterial strains were incubated for 18 to 24 h at 37 °C in an Müller-Hinton (MH) broth until an optical density of 0.15 to 0.30 (620 nm) was obtained. Next, 90 μL of Mueller-Hinton broth (MHB) was mixed with […], and serial dilutions (200, 100, 50, 25, 12.5 and 6.2) were prepared in 96-well microplates (final volume 100 μL/well). Then, 10 μL of inoculum (2 × 10^6 CFU/mL) was added to each well. The final volume in each well was 100 μL. Then they were incubated for 24 h at 37 °C; the absorbance at 620 nm was measured using an Asys Expert Plus ELISA reader. For determining the MBC, a small sample was taken from each well using an inoculation loop, and then was spread on MH agar plates and incubated overnight at 37 °C. MBC was considered on the plate which presented no bacterial growth. Each of these tests was performed twice (n = 2).

[2] = system: Staphylococcus aureus ATCC 25923; format: cell-based; details: n = 2
Method: as §1

[3] = microdilution, Mueller-Hinton broth, 24 h at 37 °C, absorbance 620 nm
[4] = sample of each well spread on MH agar, overnight 37 °C, no bacterial growth

B1: BLF: bovine lactoferrin protein, control (protein, UniProt P24627 20-708, looked up)
Lactotransferrin: APRKNVRWCTISQPEWFKCRRWQWRMKKLGAPSITCVRRAFALECIRAIAEKKADAVTLDGGMVFEAGRDPYKLRPVAAEIYGTKESPQTHYYAVAVVKKGSNFQLDQLQGRKSCHTGLGRSAGWIIPMGILRPYLSWTESLEPLQGAVAKFFSASCVPCIDRQAYPNLCQLCKGEGENQCACSSREPYFGYSGAFKCLQDGAGDVAFVKETTVFENLPEKADRDQYELLCLNNSRAPVDAFKECHLAQVPSHAVVARSVDGKEDLIWKLLSKAQEKFGKNKSRSFQLFGSPPGQRDLLFKDSALGFLRIPSKVDSALYLGSRYLTTLKNLRETAEEVKARYTRVVWCAVGPEEQKKCQQWSQQSGQNVTCATASTTDDCIVLVLKGEADALNLDGGYIYTAGKCGLVPVLAENRKSSKHSSLDCVLRPTEGYLAVAVVKKANEGLTWNSLKDKKSCHTAVDRTAGWNIPMGLIVNQTGSCAFDEFFSQSCAPGADPKSRLCALCAGDDQGLDKCVPNSKEKYYGYTGAFRCLAEDVGDVAFVKNDTVWENTNGESTADWAKNLNREDFRLLCLDGTRKPVTEAQSCHLAVAPNHAVVSRSDRAAHVKQVLLHQQALFGKNGKNCPDKFCLFKSETKNLLFNDNTECLAKLGGRPTYEEYLGTEYVTAIANLKKCSTSPLLEACAFLTR
>50 µM: MIC E. coli ATCC 25922 [1, 3] | MBC E. coli ATCC 25922 [1, 4] | MIC S. aureus ATCC 25923 [2, 3] | MBC S. aureus ATCC 25923 [2, 4]
